Source: the supplement of paper PMC10567573

B1: WEE1 (parent)
chain: FISRTSIPNAASEEGDEDDWASNK
B2: LOC100129726 (parent)
chain: VHTGCHKKLGPEARRPRTRWGKN

Variants of: B1
Assay: protein stability index of a GFP-peptide fusion (GPS, HEK-293T) (PSI 1-6); higher = more stable
Conditions: c terminus: a fixed tail appended
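Also: lentivirally expressed fusions sorted by FACS into six bins by GFP to DsRed ratio, PSI derived from sequencing read proportions per bin multiplied by bin number.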

Protein stability index of substitutions, site by site:
A10: E 4.35; G 4.13; L 3.93; K 3.65; P 4.21; N 3.86
R4: A 3.49; T 4.94; M 4.25
N9: G 4.38; K 4.13; M 3.25; W 2.46; C 3.44; D 4.34
A21: G 4.63; V 3.81; C 4.1; S 4.1; L 3.29
K24: W 2.94; Q 4.46; N 4.23; M 3.82; L 4.04
G15: C 4.51; A 4.17; E 4.62; R 3.26; W 3.27; T 4.17
I2: Q 4.58; T 4.88; Y 4.95; D 5.62
I7: N 4.35; D 4.84; M 4.41; E 4.54; T 4.53; C 3.83; S 4.36; K 4.28
E14: N 3.78; R 3.39; Y 4.02; K 4.03
E13: N 3.51; I 3.03; G 3.78; F 3.65; Q 3.81; K 3.5; C 3.62; T 3.55
T5: R 3.77; M 3.3; D 4.2; L 3.6; F 2.35; N 4.28; Q 3.74
N23: A 3.94; P 3.67; M 3.57; K 3.93; W 3.65; V 2.71; H 3.76
A11: Q 4.21; R 3.78; N 3.79; I 3.48; G 4.23; Y 3.63
W20: D 4.92
S12: C 3.97; F 3.68; H 3.93; V 3.91
D19: S 3.78; N 3.72; M 3.06; F 2.31
S22: Y 4.08; P 3.14; L 3.52
S3: Y 3.37; V 3.6; N 4.62; M 4
S6: R 3.22; P 3.79; W 3.48; N 4.53; K 4.27
F1: P 5.89; N 5.29; E 5.46; Q 5.63
D18: Y 2.5; H 2.23; T 3.5; R 3.81; N 3.27; L 3.16; I 3.53
E17: Y 3.59; A 3.73; K 3.73; C 3.43; V 3.35; F 3.01
D16: K 3.81; G 3.76; V 3.86; P 3.55; Q 4.02; R 4.17; L 3.83; W 3.23; T 3.49
P8: Q 3.96; N 4.31; G 2.17; W 2.01; C 3.18; H 3.41

Variants of: B2
Assay: as above
Conditions: c terminus: native

Protein stability index of substitutions, site by site:
T18: E 3.94; F 2.03; I 1.4; G 3.94; S 2.69; N 1.74; A 2.96; M 2; H 1.7; L 3.05; V 1.29; C 1.63; D 3.96; Y 2.37; Q 2.47
R15: H 2.44; F 3.27; L 1.7; G 3.43; I 1.27; E 2.63; Q 1.75; Y 2.06; C 1.41; P 2.75; N 2.42; V 1.34
P16: G 3.15; N 3.05; C 1.24; K 3.74; E 1.8; Q 1.03; S 1.46; H 1.39
W20: C 2.99; N 4.45; L 4.36; T 4.15; Q 3.66; S 4.58; G 1.33; I 3.89; H 2.02; F 2.87; P 2.01; Y 2.26; K 5; A 3.77; M 3.15; V 3.67; R 4.73
L9: Q 2.72; R 2.64; N 2.8; H 1.62; V 2.02; C 2.4; P 2.92
E12: D 2.56; K 1.01; H 2.21; C 3.61; T 1.42; L 2.17; M 1.47; Q 1.75; R 3.79; V 1.23; F 1.23; Y 2.69
A13: K 1.11; N 1.94; F 2.49; E 2.55; R 1.64; S 2.71; W 2.94
G10: W 2.17; H 1.74; T 2.48; V 1.39; F 1.66; R 2.37; I 1.33; Y 1.29; M 1.61; L 1.22; K 2.05; A 3.09; P 3.1
G21: M 3.89; N 4.39; C 3.16; T 3.57; V 2.78; A 3.47; P 4.47; H 4.34; I 2.85; E 4.54; W 2.69; F 3.36; Q 4.45; D 4; L 3.56; K 4.43
R14: P 4.64; H 2.71; E 3.01; V 3.24; G 4.21; A 3.44; Y 3; F 2.72; W 1.54; M 3.01; K 2.05; C 2.81; I 3.23
R19: M 2.41; W 2.67; L 3.09; Y 1.92; K 1.49; E 3.77; N 2.5; H 2.59; F 2.3; D 5.13
K8: C 1.65; I 1.37; E 1.63; P 2.52; L 2.63; M 2.25; S 2.25; Q 2.41
P11: A 2.24; D 2.18; M 2.37; T 2.67; V 2.25; W 1.46; F 2.47; R 1.01; S 1.53; K 2.05; Y 2.17
N23: Q 1.63; S 1.74; C 1.61; I 1.3; P 2.62; T 2.35; D 2.78; W 2.27; F 2.03; L 1.42
H6: Y 2.62; K 1.38; E 1.41; M 2.12; A 1.63; G 1.64; R 2.85; P 1.77; S 1.85; T 1.76; F 1.81
K22: I 4.11; T 2.93; P 3.43
C5: M 2.41; T 2.35; P 2.09; W 1.2; L 2.41; Q 1.54; R 2.29; I 1.63; K 2.27; N 1.59; Y 1.98; V 2.93; S 1.51
R17: G 2.75; A 2.5; E 2.26; L 1.7; F 2.48; Y 2.15; Q 1.01; C 1.93; K 1.36; I 1.98; P 4.37; N 3.66; S 2.7; D 4.38; T 2.59; W 1.66
K7: H 2.33; V 1.08; M 4.17; E 1.87
